Starred links: 1 amine or outer side, 2 acyl side, 3 side chain; linkers in the order of their positions; H or OH if unused. Non-standard residues stand in square brackets, D forms with d. Groups on a side chain read outwards from the residue. No end group written: not given here. *: point of attachment. C18 diacid = O=C(O)CCCCCCCCCCCCCCCCC(=O)*; γGlu = O=C(O)[C@H](CCC(=O)[*:2])N[*:1]; AEEA = NCCOCCOCC(=O)O; Aib = CC(C)(N)C(=O)O
B1: peptide of SEQ ID NO: 69 (peptide)
peptide: IVLSLDVPIKLK([AEEA-AEEA-γGlu-C18 diacid])K[Aib]LLEQERQKKQREQAETNKQILAQV-NH2
modifications: N-terminus assumed
SMILES: CC[C@H](C)[C@H](N)C(=O)N[C@H](C(=O)N[C@@H](CC(C)C)C(=O)N[C@@H](CO)C(=O)N[C@@H](CC(C)C)C(=O)N[C@@H](CC(=O)O)C(=O)N[C@H](C(=O)N1CCC[C@H]1C(=O)N[C@H](C(=O)N[C@@H](CCCCN)C(=O)N[C@@H](CC(C)C)C(=O)N[C@@H](CCCCNC(=O)COCCOCCNC(=O)COCCOCCNC(=O)CC[C@H](NC(=O)CCCCCCCCCCCCCCCCC(=O)O)C(=O)O)C(=O)N[C@@H](CCCCN)C(=O)NC(C)(C)C(=O)N[C@@H](CC(C)C)C(=O)N[C@@H](CC(C)C)C(=O)N[C@@H](CCC(=O)O)C(=O)N[C@@H](CCC(N)=O)C(=O)N[C@@H](CCC(=O)O)C(=O)N[C@@H](CCCNC(=N)N)C(=O)N[C@@H](CCC(N)=O)C(=O)N[C@@H](CCCCN)C(=O)N[C@@H](CCCCN)C(=O)N[C@@H](CCC(N)=O)C(=O)N[C@@H](CCCNC(=N)N)C(=O)N[C@@H](CCC(=O)O)C(=O)N[C@@H](CCC(N)=O)C(=O)N[C@@H](C)C(=O)N[C@@H](CCC(=O)O)C(=O)N[C@H](C(=O)N[C@@H](CC(N)=O)C(=O)N[C@@H](CCCCN)C(=O)N[C@@H](CCC(N)=O)C(=O)N[C@H](C(=O)N[C@@H](CC(C)C)C(=O)N[C@@H](C)C(=O)N[C@@H](CCC(N)=O)C(=O)N[C@H](C(N)=O)C(C)C)[C@@H](C)CC)[C@@H](C)O)[C@@H](C)CC)C(C)C)C(C)C
B2: peptide of SEQ ID NO: 70 (peptide)
peptide: IVLSLDVPIKLK([AEEA-AEEA-γGlu-C18 diacid])QILLEQERQKKQREQAETN[Aib]QILAQV-NH2
modifications: N-terminus assumed
SMILES: CC[C@H](C)[C@H](N)C(=O)N[C@H](C(=O)N[C@@H](CC(C)C)C(=O)N[C@@H](CO)C(=O)N[C@@H](CC(C)C)C(=O)N[C@@H](CC(=O)O)C(=O)N[C@H](C(=O)N1CCC[C@H]1C(=O)N[C@H](C(=O)N[C@@H](CCCCN)C(=O)N[C@@H](CC(C)C)C(=O)N[C@@H](CCCCNC(=O)COCCOCCNC(=O)COCCOCCNC(=O)CC[C@H](NC(=O)CCCCCCCCCCCCCCCCC(=O)O)C(=O)O)C(=O)N[C@@H](CCC(N)=O)C(=O)N[C@H](C(=O)N[C@@H](CC(C)C)C(=O)N[C@@H](CC(C)C)C(=O)N[C@@H](CCC(=O)O)C(=O)N[C@@H](CCC(N)=O)C(=O)N[C@@H](CCC(=O)O)C(=O)N[C@@H](CCCNC(=N)N)C(=O)N[C@@H](CCC(N)=O)C(=O)N[C@@H](CCCCN)C(=O)N[C@@H](CCCCN)C(=O)N[C@@H](CCC(N)=O)C(=O)N[C@@H](CCCNC(=N)N)C(=O)N[C@@H](CCC(=O)O)C(=O)N[C@@H](CCC(N)=O)C(=O)N[C@@H](C)C(=O)N[C@@H](CCC(=O)O)C(=O)N[C@H](C(=O)N[C@@H](CC(N)=O)C(=O)NC(C)(C)C(=O)N[C@@H](CCC(N)=O)C(=O)N[C@H](C(=O)N[C@@H](CC(C)C)C(=O)N[C@@H](C)C(=O)N[C@@H](CCC(N)=O)C(=O)N[C@H](C(N)=O)C(C)C)[C@@H](C)CC)[C@@H](C)O)[C@@H](C)CC)[C@@H](C)CC)C(C)C)C(C)C
B3: peptide of SEQ ID NO: 72 (peptide)
peptide: IVLSLDVPIKLK([AEEA-AEEA-γGlu-C18 diacid])QILLEQERQKKQRQQAETN[Aib]QILAQV-NH2
modifications: N-terminus assumed
SMILES: CC[C@H](C)[C@H](N)C(=O)N[C@H](C(=O)N[C@@H](CC(C)C)C(=O)N[C@@H](CO)C(=O)N[C@@H](CC(C)C)C(=O)N[C@@H](CC(=O)O)C(=O)N[C@H](C(=O)N1CCC[C@H]1C(=O)N[C@H](C(=O)N[C@@H](CCCCN)C(=O)N[C@@H](CC(C)C)C(=O)N[C@@H](CCCCNC(=O)COCCOCCNC(=O)COCCOCCNC(=O)CC[C@H](NC(=O)CCCCCCCCCCCCCCCCC(=O)O)C(=O)O)C(=O)N[C@@H](CCC(N)=O)C(=O)N[C@H](C(=O)N[C@@H](CC(C)C)C(=O)N[C@@H](CC(C)C)C(=O)N[C@@H](CCC(=O)O)C(=O)N[C@@H](CCC(N)=O)C(=O)N[C@@H](CCC(=O)O)C(=O)N[C@@H](CCCNC(=N)N)C(=O)N[C@@H](CCC(N)=O)C(=O)N[C@@H](CCCCN)C(=O)N[C@@H](CCCCN)C(=O)N[C@@H](CCC(N)=O)C(=O)N[C@@H](CCCNC(=N)N)C(=O)N[C@@H](CCC(N)=O)C(=O)N[C@@H](CCC(N)=O)C(=O)N[C@@H](C)C(=O)N[C@@H](CCC(=O)O)C(=O)N[C@H](C(=O)N[C@@H](CC(N)=O)C(=O)NC(C)(C)C(=O)N[C@@H](CCC(N)=O)C(=O)N[C@H](C(=O)N[C@@H](CC(C)C)C(=O)N[C@@H](C)C(=O)N[C@@H](CCC(N)=O)C(=O)N[C@H](C(N)=O)C(C)C)[C@@H](C)CC)[C@@H](C)O)[C@@H](C)CC)[C@@H](C)CC)C(C)C)C(C)C
B4: peptide of SEQ ID NO: 75 (peptide)
peptide: IVLSLDVPIKLK([AEEA-AEEA-γGlu-C18 diacid])QILLKQERQKKQRQQAETN[Aib]QILAQV-NH2
modifications: N-terminus assumed
SMILES: CC[C@H](C)[C@H](N)C(=O)N[C@H](C(=O)N[C@@H](CC(C)C)C(=O)N[C@@H](CO)C(=O)N[C@@H](CC(C)C)C(=O)N[C@@H](CC(=O)O)C(=O)N[C@H](C(=O)N1CCC[C@H]1C(=O)N[C@H](C(=O)N[C@@H](CCCCN)C(=O)N[C@@H](CC(C)C)C(=O)N[C@@H](CCCCNC(=O)COCCOCCNC(=O)COCCOCCNC(=O)CC[C@H](NC(=O)CCCCCCCCCCCCCCCCC(=O)O)C(=O)O)C(=O)N[C@@H](CCC(N)=O)C(=O)N[C@H](C(=O)N[C@@H](CC(C)C)C(=O)N[C@@H](CC(C)C)C(=O)N[C@@H](CCCCN)C(=O)N[C@@H](CCC(N)=O)C(=O)N[C@@H](CCC(=O)O)C(=O)N[C@@H](CCCNC(=N)N)C(=O)N[C@@H](CCC(N)=O)C(=O)N[C@@H](CCCCN)C(=O)N[C@@H](CCCCN)C(=O)N[C@@H](CCC(N)=O)C(=O)N[C@@H](CCCNC(=N)N)C(=O)N[C@@H](CCC(N)=O)C(=O)N[C@@H](CCC(N)=O)C(=O)N[C@@H](C)C(=O)N[C@@H](CCC(=O)O)C(=O)N[C@H](C(=O)N[C@@H](CC(N)=O)C(=O)NC(C)(C)C(=O)N[C@@H](CCC(N)=O)C(=O)N[C@H](C(=O)N[C@@H](CC(C)C)C(=O)N[C@@H](C)C(=O)N[C@@H](CCC(N)=O)C(=O)N[C@H](C(N)=O)C(C)C)[C@@H](C)CC)[C@@H](C)O)[C@@H](C)CC)[C@@H](C)CC)C(C)C)C(C)C
B5: peptide of SEQ ID NO: 77 (peptide)
peptide: IVLSLDVPIKLK([AEEA-AEEA-γGlu-C18 diacid])QILLKQERQKKQRQKAETNKQILAQV-NH2
modifications: N-terminus assumed
SMILES: CC[C@H](C)[C@H](N)C(=O)N[C@H](C(=O)N[C@@H](CC(C)C)C(=O)N[C@@H](CO)C(=O)N[C@@H](CC(C)C)C(=O)N[C@@H](CC(=O)O)C(=O)N[C@H](C(=O)N1CCC[C@H]1C(=O)N[C@H](C(=O)N[C@@H](CCCCN)C(=O)N[C@@H](CC(C)C)C(=O)N[C@@H](CCCCNC(=O)COCCOCCNC(=O)COCCOCCNC(=O)CC[C@H](NC(=O)CCCCCCCCCCCCCCCCC(=O)O)C(=O)O)C(=O)N[C@@H](CCC(N)=O)C(=O)N[C@H](C(=O)N[C@@H](CC(C)C)C(=O)N[C@@H](CC(C)C)C(=O)N[C@@H](CCCCN)C(=O)N[C@@H](CCC(N)=O)C(=O)N[C@@H](CCC(=O)O)C(=O)N[C@@H](CCCNC(=N)N)C(=O)N[C@@H](CCC(N)=O)C(=O)N[C@@H](CCCCN)C(=O)N[C@@H](CCCCN)C(=O)N[C@@H](CCC(N)=O)C(=O)N[C@@H](CCCNC(=N)N)C(=O)N[C@@H](CCC(N)=O)C(=O)N[C@@H](CCCCN)C(=O)N[C@@H](C)C(=O)N[C@@H](CCC(=O)O)C(=O)N[C@H](C(=O)N[C@@H](CC(N)=O)C(=O)N[C@@H](CCCCN)C(=O)N[C@@H](CCC(N)=O)C(=O)N[C@H](C(=O)N[C@@H](CC(C)C)C(=O)N[C@@H](C)C(=O)N[C@@H](CCC(N)=O)C(=O)N[C@H](C(N)=O)C(C)C)[C@@H](C)CC)[C@@H](C)O)[C@@H](C)CC)[C@@H](C)CC)C(C)C)C(C)C

target: rat CRF2R α receptor (rat, UniProt P47866 20-411); test: cell-based or functional assay
Sequence (P47866 20-411): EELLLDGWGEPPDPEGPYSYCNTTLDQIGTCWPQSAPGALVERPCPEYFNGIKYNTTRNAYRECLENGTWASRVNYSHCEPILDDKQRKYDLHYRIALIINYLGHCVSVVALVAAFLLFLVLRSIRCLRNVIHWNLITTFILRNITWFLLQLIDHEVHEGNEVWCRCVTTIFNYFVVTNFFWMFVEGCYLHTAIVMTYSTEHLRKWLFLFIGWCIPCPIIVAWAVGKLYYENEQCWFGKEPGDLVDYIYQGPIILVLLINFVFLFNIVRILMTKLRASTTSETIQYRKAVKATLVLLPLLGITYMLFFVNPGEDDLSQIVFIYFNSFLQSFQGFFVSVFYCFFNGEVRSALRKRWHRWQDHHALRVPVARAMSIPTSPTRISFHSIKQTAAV

Binder | EC50 [nM], 0% HSA (cAMP, A7R5 cells) [nM]
B1 | 7.33
B2 | 8.72
B3 | 4.31
B4 | 1.71
B5 | 3.26

target: T1, anti-target CRF1R receptor (UniProt P34998 24-415, limits assumed); test: cell-based or functional assay
T1 sequence (looked up): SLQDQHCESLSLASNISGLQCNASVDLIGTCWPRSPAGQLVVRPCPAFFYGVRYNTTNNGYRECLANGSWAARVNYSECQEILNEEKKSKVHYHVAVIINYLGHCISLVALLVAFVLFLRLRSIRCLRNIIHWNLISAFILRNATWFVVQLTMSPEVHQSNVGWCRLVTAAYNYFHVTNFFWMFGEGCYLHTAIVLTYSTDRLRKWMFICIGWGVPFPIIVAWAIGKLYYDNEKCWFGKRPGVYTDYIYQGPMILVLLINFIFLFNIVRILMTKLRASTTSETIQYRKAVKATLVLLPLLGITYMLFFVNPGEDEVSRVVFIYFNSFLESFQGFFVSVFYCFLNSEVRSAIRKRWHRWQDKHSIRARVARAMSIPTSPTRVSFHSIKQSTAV

Binder | EC50[nM] 0% HSA (cAMP, CRF1R-overexpression CHO cells) [nM] | Emax (%) (cAMP, CRF1R-overexpression CHO cells)
B1 | > 1000 | 0.02
B2 | > 1000 | 3.03
B3 | > 1000 | 2.58
B4 | > 1000 | 2.7
B5 | > 1000 | 1.56
